From publication PMC6346101 come the findings set out here.

The target in test [1] is Influenza D virus nucleoprotein, strain D/bovine/France/2986/2012 (Influenza D virus, strain D/bovine/France/2986/2012). The experiment in a line: SEC-MALLS.
The target of test [2] is His-tagged D/NP_(TAIL) (505-D/NP-552) (Influenza D virus, strain D/bovine/France/2986/2012). The experiment in a line: thermal shift assay (Thermofluor). A general note: In DSF a fluorescence change marks the thermal transition of the protein.
The target of test [3] is Biotinylated D/NP_(TAIL) fused to a biotinylation motif (Influenza D virus, strain D/bovine/France/2986/2012). The experiment in a line: SPR; Biacore 3000; […]; 10 mM Hepes pH 7.4, 150 mM NaCl, 0.05% Tween 20; […]. A general note: SPR reads the build-up and loss of mass on a sensor chip optically.
Test [4] deals with Influenza D virus nucleoprotein, strain D/bovine/France/2986/2012 (Influenza D virus, strain D/bovine/France/2986/2012). The experiment in a line: negative-stain electron microscopy.

human importin-α7 without its IBB domain (amino-acids 58 to 536), O60684 58-536 (domain or fragment; other documents disagree on this pair), sequence (O60684 58-536): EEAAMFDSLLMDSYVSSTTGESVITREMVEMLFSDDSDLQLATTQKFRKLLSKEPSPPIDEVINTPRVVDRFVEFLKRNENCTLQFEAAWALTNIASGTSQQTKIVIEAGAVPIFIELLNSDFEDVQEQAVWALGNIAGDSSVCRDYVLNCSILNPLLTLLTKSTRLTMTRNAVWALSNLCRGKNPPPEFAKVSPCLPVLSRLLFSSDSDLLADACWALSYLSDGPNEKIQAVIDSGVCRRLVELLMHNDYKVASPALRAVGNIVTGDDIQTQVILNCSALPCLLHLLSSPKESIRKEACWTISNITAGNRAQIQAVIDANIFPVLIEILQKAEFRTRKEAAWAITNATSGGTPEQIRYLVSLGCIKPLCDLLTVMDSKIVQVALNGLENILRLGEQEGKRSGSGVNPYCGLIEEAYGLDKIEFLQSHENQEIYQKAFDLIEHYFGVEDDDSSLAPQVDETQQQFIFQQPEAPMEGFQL

In test [1], “human importin-α7 without its IBB domain (amino-acids 58 to 536), O60684 58-536 (domain or fragment; other documents disagree on this pair)” registered a stoichiometry N (importin-α7 per D/NP tetramer) of 4. Besides, the rise of the melting temperature in test [2] was 5 °C. The dissociation constant Kd in test [3] is 100 nM.
Turning to “Influenza D virus nucleoprotein, strain D/bovine/France/2986/2012 (from UniProt A0A0E3VZU8 1-552) (natural protein)”, the stoichiometry N in test [1] and in test [4] was 4 each time.

Broadly, the Kd is a measure of binding affinity in units of concentration. Low values mean a tighter complex, high ones a looser complex. A word on the stoichiometry N: it is a count of units in the complex or per binding partner.
